Bridge positions count the residues as written; N and C are the ends. Ends that are not written are not given here. COCH2 = acetyl group that carries the bridge
Target: T1, Recombinant Human FGFR2 alpha (IIIc) Fc Chimera Protein (Homo sapiens, UniProt P21802)
T1 construct: Fc (chimera); purchased R&D systems 712-FR-050
Test: ELISA binding affinity of enzymatically synthesized peptide to FGFR
Conditions: ELISA luminescence signal at 10 nmol/L peptide, SEQ ID NO: 47 at 10 nmol/L standardized to 1; enzyme synthesis product
Experimental: The binding affinity of the peptide to FGFR was evaluated using an ELISA method.
The binding affinity of the enzymatically synthesized peptide to FGFR was measured by evaluating the amount of the peptide bound to FGFR by ELISA.
First, 5 ng of Recombinant Human FGFR2 alpha (IIIc) Fc Chimera Protein (R&D systems, 712-FR-050) was immobilized in each well of a 96-well plate, and blocked with Pierce Protein-Free (PBS) Blocking Buffer (Thermo, 37572), and a peptide diluted with Can Get Signal Immunoreaction Enhancer Solution I (TOYOBO, NKB-101) was then added and reacted at room temperature for 3 hours. After washing with 0.05% Tween 20-containing phosphate buffered saline (PBS), an anti-Myc antibody (Cell Signaling, 14038S) diluted with Can Get Signal Immunoreaction Enhancer Solution II (TOYOBO, NKB-101) was added and reacted at room temperature for 2 hours. After washing with 0.05% Tween 20-containing PBS, SuperSignal ELISA Femto Substrate (Thermo, 37075) was added, and the luminescence amount was measured. The dose-response relationship was calculated from using the difference between the luminescence amount in the well in which FGFR was immobilized and the luminescence amount in the well in which FGFR was not immobilized, and the concentration of the peptide at the time of reaction, and the binding affinity to FGFR was evaluated according to the following evaluation criteria. The evaluation result preferably satisfies the evaluation criteria A, B, or C.
In a case where a value of a luminescence signal emitted by the cyclic peptide set forth in SEQ ID NO: 47 at a reaction concentration of 10 nmol/L is standardized to 1, evaluation criteria of the luminescence signal value emitted by the cyclic peptide at a reaction concentration of 10 nmol/L is as follows. • A: 0.7 or more • B: 0.5 or more and less than 0.7 • C: 0.1 or more and less than 0.5 • D: less than 0.1.

T1 sequence (P21802 with tags, fused parts or gaps limits assumed): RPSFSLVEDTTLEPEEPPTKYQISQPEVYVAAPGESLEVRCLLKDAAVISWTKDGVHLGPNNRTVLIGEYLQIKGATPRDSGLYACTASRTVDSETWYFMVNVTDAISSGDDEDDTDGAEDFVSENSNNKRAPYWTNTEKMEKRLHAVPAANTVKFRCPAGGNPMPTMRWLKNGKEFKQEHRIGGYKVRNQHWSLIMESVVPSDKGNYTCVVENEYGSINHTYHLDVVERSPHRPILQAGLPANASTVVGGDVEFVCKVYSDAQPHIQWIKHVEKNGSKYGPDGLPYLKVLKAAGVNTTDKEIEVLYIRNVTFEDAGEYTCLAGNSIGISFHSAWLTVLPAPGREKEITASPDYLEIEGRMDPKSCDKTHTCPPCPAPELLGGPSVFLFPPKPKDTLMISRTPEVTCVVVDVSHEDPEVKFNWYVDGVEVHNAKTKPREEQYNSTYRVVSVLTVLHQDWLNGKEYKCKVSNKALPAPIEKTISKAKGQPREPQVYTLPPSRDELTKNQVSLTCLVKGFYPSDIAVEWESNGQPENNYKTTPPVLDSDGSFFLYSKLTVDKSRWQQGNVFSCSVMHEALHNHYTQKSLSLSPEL

| Substance | Evaluation result of binding affinity to FGFR |
| --- | --- |
| 128 (PCVQNYFNDLQWIFLQHYK(COCH2)R; thioether 2-19 (inferred)) [compound 128] | A (0.7 or more) |
| 129 (ECPWNFVNQLQWQYFITYK(COCH2)V; thioether 2-19 (inferred)) [compound 129] | A (0.7 or more) |
| 130 (HCDGNWWNSQQFFYLLLYK(COCH2)H; thioether 2-19 (inferred)) [compound 130] | A (0.7 or more) |
| 131 (YCEENYLDPEQYQYFIYFK(COCH2)Y; thioether 2-19 (inferred)) [compound 131] | A (0.7 or more) |
| 132 (ECQENFVDRQQYWYFLSYK(COCH2)F; thioether 2-19 (inferred)) [compound 132] | A (0.7 or more) |
| 133 (ECLGNYFSHEQYQYLLQYK(COCH2)I; thioether 2-19 (inferred)) [compound 133] | A (0.7 or more) |
| 134 (LCADQYDYLLQYVFWRTYK(COCH2)I; thioether 2-19 (inferred)) [compound 134] | C (0.1 or more and less than 0.5) |
| 135 (QCTYLAQYLVERYHLTK(COCH2)T; thioether 2-17 (inferred)) [compound 135] | C (0.1 or more and less than 0.5) |
| 136 (GCEENYLDPEQYQYFIYFK(COCH2)Y; thioether 2-19 (inferred)) [compound 136] | A (0.7 or more) |
| 137 (PCEENYLDPEQYQYFIYFK(COCH2)Y; thioether 2-19 (inferred)) [compound 137] | A (0.7 or more) |
| 138 (LCEENYLDPEQYQYFIYFK(COCH2)Y; thioether 2-19 (inferred)) [compound 138] | A (0.7 or more) |
| 139 (ICEENYLDPEQYQYFIYFK(COCH2)Y; thioether 2-19 (inferred)) [compound 139] | A (0.7 or more) |
| 140 (VCEENYLDPEQYQYFIYFKY; Description of Artificial Sequence: Cyclic peptide) [compound 140] | A (0.7 or more) |
| 141 (FCEENYLDPEQYQYFIYFKY; Description of Artificial Sequence: Cyclic peptide) [compound 141] | A (0.7 or more) |
| 142 (WCEENYLDPEQYQYFIYFKY; Description of Artificial Sequence: Cyclic peptide) [compound 142] | A (0.7 or more) |
| 143 (NCEENYLDPEQYQYFIYFKY; Description of Artificial Sequence: Cyclic peptide) [compound 143] | A (0.7 or more) |
| 144 (QCEENYLDPEQYQYFIYFKY; Description of Artificial Sequence: Cyclic peptide) [compound 144] | A (0.7 or more) |
| 145 (SCEENYLDPEQYQYFIYFKY; Description of Artificial Sequence: Cyclic peptide) [compound 145] | A (0.7 or more) |
| 146 (TCEENYLDPEQYQYFIYFKY; Description of Artificial Sequence: Cyclic peptide) [compound 146] | A (0.7 or more) |
| 147 (DCEENYLDPEQYQYFIYFKY; Description of Artificial Sequence: Cyclic peptide) [compound 147] | A (0.7 or more) |
| 148 (ECEENYLDPEQYQYFIYFKY; Description of Artificial Sequence: Cyclic peptide) [compound 148] | A (0.7 or more) |
| 149 (RCEENYLDPEQYQYFIYFKY; Description of Artificial Sequence: Cyclic peptide) [compound 149] | A (0.7 or more) |
| 150 (HCEENYLDPEQYQYFIYFK(COCH2)Y; thioether 2-19 (inferred)) [compound 150] | A (0.7 or more) |
| 151 (YCGENYLDPEQYQYFIYFK(COCH2)Y; thioether 2-19 (inferred)) [compound 151] | A (0.7 or more) |

| Substance | Evaluation result of binding affinity to FGFR |
| --- | --- |
| 152 (YCPENYLDPEQYQYFIYFK(COCH2)Y; thioether 2-19 (inferred)) [compound 152] | A (0.7 or more) |
| 153 (YCLENYLDPEQYQYFIYFK(COCH2)Y; thioether 2-19 (inferred)) [compound 153] | A (0.7 or more) |
| 154 (YCIENYLDPEQYQYFIYFK(COCH2)Y; thioether 2-19 (inferred)) [compound 154] | A (0.7 or more) |
| 155 (YCVENYLDPEQYQYFIYFK(COCH2)Y; thioether 2-19 (inferred)) [compound 155] | A (0.7 or more) |
| 156 (YCFENYLDPEQYQYFIYFK(COCH2)Y; thioether 2-19 (inferred)) [compound 156] | A (0.7 or more) |
| 157 (YCYENYLDPEQYQYFIYFK(COCH2)Y; thioether 2-19 (inferred)) [compound 157] | A (0.7 or more) |
| 158 (YCWENYLDPEQYQYFIYFK(COCH2)Y; thioether 2-19 (inferred)) [compound 158] | A (0.7 or more) |
| 159 (YCNENYLDPEQYQYFIYFK(COCH2)Y; thioether 2-19 (inferred)) [compound 159] | A (0.7 or more) |
| 160 (YCQENYLDPEQYQYFIYFK(COCH2)Y; thioether 2-19 (inferred)) [compound 160] | A (0.7 or more) |
| 161 (YCSENYLDPEQYQYFIYFK(COCH2)Y; thioether 2-19 (inferred)) [compound 161] | A (0.7 or more) |
| 162 (YCTENYLDPEQYQYFIYFK(COCH2)Y; thioether 2-19 (inferred)) [compound 162] | A (0.7 or more) |
| 163 (YCDENYLDPEQYQYFIYFK(COCH2)Y; thioether 2-19 (inferred)) [compound 163] | A (0.7 or more) |
| 164 (YCRENYLDPEQYQYFIYFK(COCH2)Y; thioether 2-19 (inferred)) [compound 164] | A (0.7 or more) |
| 165 (YCHENYLDPEQYQYFIYFK(COCH2)Y; thioether 2-19 (inferred)) [compound 165] | A (0.7 or more) |
| 166 (YCEGNYLDPEQYQYFIYFK(COCH2)Y; thioether 2-19 (inferred)) [compound 166] | A (0.7 or more) |
| 167 (YCEPNYLDPEQYQYFIYFK(COCH2)Y; thioether 2-19 (inferred)) [compound 167] | A (0.7 or more) |
| 168 (YCELNYLDPEQYQYFIYFK(COCH2)Y; thioether 2-19 (inferred)) [compound 168] | A (0.7 or more) |
| 169 (YCEINYLDPEQYQYFIYFK(COCH2)Y; thioether 2-19 (inferred)) [compound 169] | A (0.7 or more) |
| 170 (YCEVNYLDPEQYQYFIYFK(COCH2)Y; thioether 2-19 (inferred)) [compound 170] | A (0.7 or more) |
| 171 (YCEFNYLDPEQYQYFIYFK(COCH2)Y; thioether 2-19 (inferred)) [compound 171] | B (0.5 or more and less than 0.7) |
| 172 (YCEYNYLDPEQYQYFIYFK(COCH2)Y; thioether 2-19 (inferred)) [compound 172] | A (0.7 or more) |
| 173 (YCEWNYLDPEQYQYFIYFK(COCH2)Y; thioether 2-19 (inferred)) [compound 173] | A (0.7 or more) |
| 174 (YCENNYLDPEQYQYFIYFK(COCH2)Y; thioether 2-19 (inferred)) [compound 174] | A (0.7 or more) |

Reference: patent US20260008815A1, “CYCLIC PEPTIDE OR SALT THEREOF, AND USES THEREOF” (FUJIFILM Corporation, priority 2023, published 2026)
